In CN111138531A (INST MILITARY MEDICINE ACADEMY MILITARY SCIENCES PLA, dated 2020):

Biological target: GPdM (EBOV, UniProt Q05320 33-632)
Experiment: ELISA on coated truncated GP, method as example 2

B1: 单克隆抗体8F9 (antibody, V domains shown)
VH: EVQLLESGGGLVQPGGSLRLSCAASEFTFSNYAMNWVRQAPGKGLEWVSGISTRGSSTYYADSVKGRFTISRDNSKNTLYLQMNSLRVEDTAVYYCAKDRLSVFGVVLISSDYYGMDVWGQGTTVTVSS
VL: AIRMTQSPFSLSASVGDRVTITCRASRTISSYLNWYQKKPGKAPKLLIYAASSLQSGVPSRFSGSGSGTDFTLTISSLQPEDFATYYCQQSYSTPMTFGQGTRLEIKT
  EC50: 6.2 ng/mL
